Results as given in patent publication US8771644B2, “Imaging probes” (Sanofi, priority 2007, dated 2014).

Tests used:
Type in all cases: biochemical
[1] = substrate: CN(C)c1ccc(/N=N/c2ccc(C(=O)NCCCC[C@H](NC(=O)[C@H](CCC(=O)NCCNc3cccc4c(S(=O)(=O)O)cccc34)NC(=O)[C@H](CC3CCCCC3)NC(=O)N3CCOCC3)C(=O)O)cc2)cc1; assay: in vitro activity assay (fluorescence, substrate cleavage) with Cath S; conditions: other: Cath S, measurement performed at pH 7.5, 37.0 °C
[2] = substrate: CN(C)c1ccc2c(c1)Oc1cc(N(C)C)ccc1C21OC(=O)c2cc(C(=O)NCC[C@H](NC(=O)[C@H](CC3CCCCC3)NC(=O)N3CCOCC3)C(=O)NCCNC(=O)c3ccc(-c4c5ccc(=O)cc-5oc5cc(O)ccc45)c(C(=O)O)c3)ccc21; assay: in vitro activity assay (fluorescence, substrate cleavage) with Cath K; conditions: other: Cath K; measurement performed at pH 5.5; pH 5.5; 37.0 °C
Method: (§1) […] The substrates were solved in DMSO and added to enzyme solution with a final concentration of 50 μM.
(§2) Fluorescence was measured with an Tecan SAFIRE II spectrometer (excitation wavelength: 336 nm; emission wavelength: 490 nm; excitation band: 10.0 nm; emission band: 10.0 nm; amplification (manual): 90).

[3] = substrate: CN(C)c1ccc(/N=N/c2ccc(C(=O)NCCCC[C@H](NC(=O)[C@H](CCC(=O)NCCNc3cccc4c(S(=O)(=O)O)cccc34)NC(=O)[C@H](CC3CCCCC3)NC(=O)N3CCOCC3)C(=O)O)cc2)cc1; assay: as above; conditions: other: Cath K; measurement performed at pH 7.5; pH 7.5; 37.0 °C
Method: as §1, §2

[4] = substrate: CN(C)c1ccc2c(c1)Oc1cc(N(C)C)ccc1C21OC(=O)c2cc(C(=O)NCC[C@H](NC(=O)[C@H](CC3CCCCC3)NC(=O)N3CCOCC3)C(=O)NCCNC(=O)c3ccc(-c4c5ccc(=O)cc-5oc5cc(O)ccc45)c(C(=O)O)c3)ccc21; assay: in vitro activity assay (fluorescence, substrate cleavage) with Papain; conditions: other: Papain; measurement performed at pH 5.5; pH 5.5; 37.0 °C
Method: as §1, §2

[5] = substrate: CN(C)c1ccc(/N=N/c2ccc(C(=O)NCCCC[C@H](NC(=O)[C@H](CCC(=O)NCCNc3cccc4c(S(=O)(=O)O)cccc34)NC(=O)[C@H](CC3CCCCC3)NC(=O)N3CCOCC3)C(=O)O)cc2)cc1; assay: as above; conditions: other: Papain; measurement performed at pH 7.5; pH 7.5; 37.0 °C
Method: as §1, §2

B1: Cath S (Homo sapiens) (protein)
chain: LPDSVDWREKGCVTEVKYQGSCGACWAFSAVGALEAQLKLKTGKLVSLSAQNLVDCSTEKYGNKGCNGGFMTTAFQYIIDNKGIDSDASYPYKAMDQKCQYDSKYRAATCSKYTELPYGREDVLKEAVANKGPVSVGVDARHPSFFLYRSGVYYEPSCTQNVNHGVLVVGYGDLNGKEYWLVKNSWGHNFGEEGYIRMARNKGNHCGIASFPSYPEI
Km [1]: 32 µM | Vmax [1]: 0.144 µmol/min | kcat [1]: 0.11 s⁻¹ | kcat/Km [1]: 3260 M⁻¹ s⁻¹

B2: Cath K (Homo sapiens) (protein)
chain: APDSVDYRKKGYVTPVKNQGQCGSCWAFSSVGALEGQLKKKTGKLLNLSPQNLVDCVSENDGCGGGYMTNAFQYVQKNRGIDSEDAYPYVGQEESCMYNPTGKAAKCRGYREIPEGNEKALKRAVARVGPVSVAIDASLTSFQFYSKGVYYDESCNSDNLNHAVLAVGYGIQKGNKHWIIKNSWGENWGNKGYILMARNKNNACGIANLASFPKM
Km [2]: 35 µM | Vmax [2]: 0.438 µmol/min | kcat [2]: 0.192 s⁻¹ | Km [3]: 190 µM | Vmax [3]: 0.018 µmol/min | kcat/Km [3]: 27 M⁻¹ s⁻¹

B3: Papain (Carica papaya) (protein)
chain: IPEYVDWRQKGAVTPVKNQGSCGSCWAFSAVVTIEGIIKIRTGNLNEYSEQELLDCDRRSYGCNGGYPWSALQLVAQYGIHYRNTYPYEGVQRYCRSREKGPYAAKTDGVRQVQPYNEGALLYSIANQPVSVVLEAAGKDFQLYRGGIFVGPCGNKVDHAVAAVGYGPNYILIKNSWGTGWGENGYIRIKRGTGNSYGVCGLYTSSFYPVKN
Km [4]: 6.3 µM | Vmax [4]: 0.0024 µmol/min | kcat [4]: 0.002 s⁻¹ | Km [5]: 520 µM | Vmax [5]: 0.096 µmol/min | kcat [5]: 0.1 s⁻¹ | kcat/Km [5]: 273 M⁻¹ s⁻¹
